Measured values reported in US5262522, “Receptor for oncostatin M and leukemia inhibitory factor” (Immunex Corporation, dated 1993).

B1: Recombinant human leukemia inhibitory factor (LIF) (ligand)
chain: not shown
modifications: radioiodinated (125I) where used as the labelled ligand; non-radiolabeled where used as competitor
B2: Receptor comprising gp130 (B10G) and LIF-R (pHLIFR-65) co-expressed on COS-7 cells (receptor)
chain 1: ELLDPCGYISPESPVVQLHSNFTAVCVLKEKCMDYFHVNANYIVWKTNHFTIPKEQYTIINRTASSVTFTDIASLNIQLTCNILTFGQLEQNVYGITIISGLPPEKPKNLSCIVNEGKKMRCEWDGGRETHLETNFTLKSEWATHKFADCKAKRDTPTSCTVDYSTVYFVNIEVWVEAENALGKVTSDHINFDPVYKVKPNPPHNLSVINSEELSSILKLTWTNPSIKSVIILKYNIQYRTKDASTWSQIPPEDTASTRSSFTVQDLKPFTEYVFRIRCMKEDGKGYWSDWSEEASGITYEDRPSKAPSFWYKIDPSHTQGYRTVQLVWKTLPPFEANGKILDYEVTLTRWKSHLQNYTVNATKLTVNLTNDRYLATLTVRNLVGKSDAAVLTIPACDFQATHPVMDLKAFPKDNMLWVEWTTPRESVKKYILEWCVLSDKAPCITDWQQEDGTVHRTYLRGNLAESKCYLITVTPVYADGPGSPESIKAYLKQAPPSKGPTVRTKKVGKNEAVLEWDQLPVDVQNGFIRNYTIFYRTIIGNETAVNVDSSHTEYTLSSLTSDTLYMVRMAAYTDEGGKDGPEFTFTTPKFAQGEIEAIVVPVCLAFLLTTLLGVLFCFNKRDLIKKHIWPNVPDPSKSHIAQWSPHTPPRHNFNSKDQMYSDGNFTDVSVVEIEANDKKPFPEDL
chain 2: QKKGAPHDLKCVTNNLQVWNCSWKAPSGTGRGTDYEVCIENRSRSCYQLEKTSIKIPALSHGDYEITINSLHDFGSSTSKFTLNEQNVSLIPDTPEILNLSADFSTSTLYLKWNDRGSVFPHRSNVIWEIKVLRKESMELVKLVTHNTTLNGKDTLHHWSWASDMPLECAIHFVEIRCYIDNLHFSGLEEWSDWSPVKNISWIPDSQTKVFPQDKVILVGSDITFCCVSQEKVLSALIGHTNCPLIHLDGENVAIKIRNISVSASSGTNVVFTTEDNIFGTVIFAGYPPDTPQQLNCETHDLKEIICSWNPGRVTALVGPRATSYTLVESFSGKYVRLKRAEAPTNESYQLLFQMLPNQEIYNFTLNAHNPLGRSQSTILVNITEKVYPHTPTSFKVKDINSTAVKLSWHLPGNFAKINFLCEIEIKKSNSVQEQRNVTIKGVENSSYLVALDKLNPYTLYTFRIRCSTETFWKWSKWSNKKQHLTTEASPSKGPDTWREWSSDGKNLIIYWKPLPINEANGKILSYNVSCSSDEETQSLSEIPDPQHKAEIRLDKNDYIISVVAKNSVGSSPPSKIASMEIPNDDLKIEQVVGMGKGILLTWHYDPNMTCDYVIKWCNSSRSEPCLMDWRKVPSNSTETVIESDEFRPGIRYNFFLYGCRNQGYQLLRSMIGYIEELAPIVAPNFTVEDTSADSILVKWEDIPVEELRGFLRGYLFYFGKGERDTSKMRVLESGRSDIKVKNITDISQKTLRIADLQGKTSYHLVLRAYTDGGVGPEKSMYVVTKENSVGLIIAILIPVAVAVIVGVVTSILCYRKREWIKETFYPDIPNPENCKALQFQKSVCEGSSALKTLEMNPCTPNNVEVLETRSAFPKIEDTEIISPVAERPEDRSDAEPENHVVVSYCPPIIEEEIPNPAADEAGGTAQVIYIDVQSMYQPQAKPEEKKKKSRSSRSKI

Experiments:
[1] = biological target: B2; test: Scatchard analysis of 125I-LIF binding to co-transfected COS-7 cells preincubated with oncostatin M as competitor (curve C)
Experimental: (§1) Host cells transfected with vector(s) encoding LIF-R or gp130 as described below were assayed for the ability to bind LIF. The host cells were the monkey kidney cell line designated COS-7, described by Glutzman, *Cell* 23:175 (1981). In separate transfections, COS-7 cells were transfected with the following combinations of vectors. The different types of transfected cells (and non-transfected control cells) are designated A–F as shown below, and the curves representing the LIF-binding assay data for each transfected or control cell type are also labeled A–F in FIG. 1.
(§2) Briefly, the COS-7 host cells were released from 10 cm tissue culture plates two days after transfection by incubation in non-enzymatic cell dissociation buffer (Sigma) at 37° C. for 30–60 minutes. Cells were then washed with the above-described binding medium and resuspended in binding medium at 5 ×10^6 cells/ml. 50 μl aliquots of the cells were incubated with serial dilutions of ^125I-LIF at room temperature for one hour with agitation (in the presence or absence of a 200-fold excess of unlabeled LIF) in a total volume of 150 μl. The unlabeled LIF allowed for calculation of the non-specific background binding of LIF. […]

[2] = biological target: B1; test: Scatchard analysis of 125I-LIF binding to COS-7 cells co-transfected with B10G and pHLIFR-65 (curve A), phthalate oil separation
Experimental: as §1, §2

[3] = biological target: B1; test: Scatchard analysis of 125I-LIF binding to COS-7 cells transfected with pHLIFR-65 and CAV (curve B, site 2), phthalate oil separation
Experimental: as §1, §2

[4] = biological target: B1; test: 125I-LIF binding to COS-7 cells transfected with B10G and CAV (curve F against curve E), phthalate oil separation, Scatchard
Experimental: as §1, §2

B1
KD after preincubation of the cells with non-radiolabeled oncostatin M [1]: 4.2 nM

B2
Kd [2]: 0.9 nM

B3: Single-polypeptide chain human LIF-R encoded by pHLIFR-65, expressed on COS-7 cells (receptor)
chain: QKKGAPHDLKCVTNNLQVWNCSWKAPSGTGRGTDYEVCIENRSRSCYQLEKTSIKIPALSHGDYEITINSLHDFGSSTSKFTLNEQNVSLIPDTPEILNLSADFSTSTLYLKWNDRGSVFPHRSNVIWEIKVLRKESMELVKLVTHNTTLNGKDTLHHWSWASDMPLECAIHFVEIRCYIDNLHFSGLEEWSDWSPVKNISWIPDSQTKVFPQDKVILVGSDITFCCVSQEKVLSALIGHTNCPLIHLDGENVAIKIRNISVSASSGTNVVFTTEDNIFGTVIFAGYPPDTPQQLNCETHDLKEIICSWNPGRVTALVGPRATSYTLVESFSGKYVRLKRAEAPTNESYQLLFQMLPNQEIYNFTLNAHNPLGRSQSTILVNITEKVYPHTPTSFKVKDINSTAVKLSWHLPGNFAKINFLCEIEIKKSNSVQEQRNVTIKGVENSSYLVALDKLNPYTLYTFRIRCSTETFWKWSKWSNKKQHLTTEASPSKGPDTWREWSSDGKNLIIYWKPLPINEANGKILSYNVSCSSDEETQSLSEIPDPQHKAEIRLDKNDYIISVVAKNSVGSSPPSKIASMEIPNDDLKIEQVVGMGKGILLTWHYDPNMTCDYVIKWCNSSRSEPCLMDWRKVPSNSTETVIESDEFRPGIRYNFFLYGCRNQGYQLLRSMIGYIEELAPIVAPNFTVEDTSADSILVKWEDIPVEELRGFLRGYLFYFGKGERDTSKMRVLESGRSDIKVKNITDISQKTLRIADLQGKTSYHLVLRAYTDGGVGPEKSMYVVTKENSVGLIIAILIPVAVAVIVGVVTSILCYRKREWIKETFYPDIPNPENCKALQFQKSVCEGSSALKTLEMNPCTPNNVEVLETRSAFPKIEDTEIISPVAERPEDRSDAEPENHVVVSYCPPIIEEEIPNPAADEAGGTAQVIYIDVQSMYQPQAKPEEKKKKSRSSRSKI
Kd [3]: 2.4 nM

B4: Human gp130 encoded by plasmid B10G, expressed on COS-7 cells (receptor)
chain: ELLDPCGYISPESPVVQLHSNFTAVCVLKEKCMDYFHVNANYIVWKTNHFTIPKEQYTIINRTASSVTFTDIASLNIQLTCNILTFGQLEQNVYGITIISGLPPEKPKNLSCIVNEGKKMRCEWDGGRETHLETNFTLKSEWATHKFADCKAKRDTPTSCTVDYSTVYFVNIEVWVEAENALGKVTSDHINFDPVYKVKPNPPHNLSVINSEELSSILKLTWTNPSIKSVIILKYNIQYRTKDASTWSQIPPEDTASTRSSFTVQDLKPFTEYVFRIRCMKEDGKGYWSDWSEEASGITYEDRPSKAPSFWYKIDPSHTQGYRTVQLVWKTLPPFEANGKILDYEVTLTRWKSHLQNYTVNATKLTVNLTNDRYLATLTVRNLVGKSDAAVLTIPACDFQATHPVMDLKAFPKDNMLWVEWTTPRESVKKYILEWCVLSDKAPCITDWQQEDGTVHRTYLRGNLAESKCYLITVTPVYADGPGSPESIKAYLKQAPPSKGPTVRTKKVGKNEAVLEWDQLPVDVQNGFIRNYTIFYRTIIGNETAVNVDSSHTEYTLSSLTSDTLYMVRMAAYTDEGGKDGPEFTFTTPKFAQGEIEAIVVPVCLAFLLTTLLGVLFCFNKRDLIKKHIWPNVPDPSKSHIAQWSPHTPPRHNFNSKDQMYSDGNFTDVSVVEIEANDKKPFPEDL
binding result [4]: no binding
